Results: patent US20100105151A1
Where two headings read alike, the source gives them in different places.

B1: fluorescently labeled version of the peptide corresponding to residues 396-429 (stem region) of deng (peptide)
peptide: SSIGQMFETTMRGAKRMAILGDTAWDFGSLGGVF
modifications: not checked
B2: stem peptide including residues 413-447 of dengue envelope protein E (peptide)
peptide: AILGDTAWDFGSLGGVFTSIGKALHQVFGAIYGAA
modifications: not checked

How the values were obtained:
[1] = biological target: T1, trimeric, post-fusion form of sE, the soluble fragment of dengue virus type 2 (S1 strain) envelope glycoprotein E (dengue virus type 2 S1 strain), P12823; test: fluorescence depolarization, labeled peptide titrated with trimeric sE
[2] = biological target: T1, trimeric, post-fusion form of sE, the …; test: fluorescence depolarization; 33nM labelled peptide titrated with dengue sE trimer (x axis µM E)
[3] = biological target: T1, trimeric, post-fusion form of sE, the …; test: fluorescence depolarization
[4] = biological target: T1, trimeric, post-fusion form of sE, the …

Binder	Kd [1]	EC50 (read off the curve) [2]	Kd [3]	EC50 (read off the curve) [4]
B1	6 µM	5 µM		
B2			4 µM	3 µM
